# Laboratory results reported in patent US10954275.
# Columns and labels:
# [1] = molecular target: AlexaFluor 647-conjugated human IgG (Jackson Immuno Research) (human); experiment: flow cytometry, titration of AlexaFluor 647 human IgG on yeast-displayed PrG, pH 8.2
# [2] = molecular target: AlexaFluor 647-conjugated human IgG (Jackson Immuno Research) (human); experiment: flow cytometry, titration of AlexaFluor 647 human IgG on yeast-displayed PrG, pH 5.6
# [3] = molecular target: AlexaFluor 647-conjugated human IgG (Jackson Immuno Research) (human); experiment: flow cytometry on yeast-displayed PrG with labelled human IgG at pH 5.6 and pH 8.2 (FIG. 6)
# [4] = molecular target: AlexaFluor 647-conjugated human IgG (Jackson Immuno Research) (human); experiment: flow cytometry, IgG titration on yeast-displayed PrG, pH 8.2 against pH 5.6
# [5] = molecular target: AlexaFluor 647-conjugated human IgG (Jackson Immuno Research) (human); experiment: flow cytometry on yeast-displayed PrG, ~200 nM IgG, pH 5.6
# [6] = molecular target: AlexaFluor 647-conjugated human IgG (Jackson Immuno Research) (human); experiment: flow cytometry on yeast-displayed PrG, ~200 nM IgG, pH 8.2
# [7] = molecular target: AlexaFluor 647-conjugated human IgG (Jackson Immuno Research) (human); experiment: flow cytometry on yeast-displayed PrG with labelled human IgG (FIG. 6), against WT PrG
binder,measurement,setting,value
"Protein G EHHE C2 domain (PrG-EHHE; A24E, K28H, V29H, N35E), displayed on the yeast cell surface (designed binder, not shown: large carriers) TTYKLVINGKTLKGETTTEAVDAETAEHHFKQYAEDNGVDGEWTYDDATKTFTVTE",Kd,[1],1170 nM
same,Kd,[2],27 nM
same,fold increase of the pH dependent switch,[3],> 2 fold
same,"fold change in binding constant, pH 5.6 to pH 8.2",[4],40 fold
same,Percent IgG bound at IgG concentration of ~200 nM,[5],80%
same,Percent IgG bound at IgG concentration of ~200 nM,[6],10%
"Protein G EHHD C2 domain (PrG-EHHD; A24E, K28H, V29H, N35D), displayed on the yeast cell surface (designed binder, not shown: large carriers) TTYKLVINGKTLKGETTTEAVDAETAEHHFKQYADDNGVDGEWTYDDATKTFTVTE",Kd,[1],1780 nM
same,Kd,[2],96 nM
same,"fold change in binding constant, pH 5.6 to pH 8.2",[4],20 fold
same,Percent IgG bound at IgG concentration of ~200 nM,[5],65%
same,Percent IgG bound at IgG concentration of ~200 nM,[6],7%
"Protein G EHH C2 domain (PrG-EHH; A24E, K28H, V29H), displayed on the yeast cell surface (designed binder, not shown: large carriers) TTYKLVINGKTLKGETTTEAVDAETAEHHFKQYANDNGVDGEWTYDDATKTFTVTE",fold increase of IgG binding affinity,[7],> 4 fold
"Protein G ERH C2 domain (PrG-ERH; A24E, K28R, V29H), displayed on the yeast cell surface (designed binder, not shown: large carriers) TTYKLVINGKTLKGETTTEAVDAETAERHFKQYANDNGVDGEWTYDDATKTFTVTE",fold increase of IgG binding affinity,[7],> 4 fold
